Measurements: patent US20140221282A1, “LONG DURATION DUAL HORMONE CONJUGATES” (priority 2011, published 2014)
Ends that are not written are not given here. Y‑shaped mPEG40KD = Y-shaped methoxy-PEG of 40 kDa attached to the Lys side chain; mPEG40KD = methoxy-PEG of 40 kDa

These binders were tested against amylin receptor of rat nucleus accumbens membranes (rat) (assay: competition with 125I-rat amylin, rat nucleus accumbens membranes).
Sequence of amylin receptor of rat nucleus accumbens membranes (rat) (P32214 other isoform, or with tags, fused parts or gaps, chain 1 of 2): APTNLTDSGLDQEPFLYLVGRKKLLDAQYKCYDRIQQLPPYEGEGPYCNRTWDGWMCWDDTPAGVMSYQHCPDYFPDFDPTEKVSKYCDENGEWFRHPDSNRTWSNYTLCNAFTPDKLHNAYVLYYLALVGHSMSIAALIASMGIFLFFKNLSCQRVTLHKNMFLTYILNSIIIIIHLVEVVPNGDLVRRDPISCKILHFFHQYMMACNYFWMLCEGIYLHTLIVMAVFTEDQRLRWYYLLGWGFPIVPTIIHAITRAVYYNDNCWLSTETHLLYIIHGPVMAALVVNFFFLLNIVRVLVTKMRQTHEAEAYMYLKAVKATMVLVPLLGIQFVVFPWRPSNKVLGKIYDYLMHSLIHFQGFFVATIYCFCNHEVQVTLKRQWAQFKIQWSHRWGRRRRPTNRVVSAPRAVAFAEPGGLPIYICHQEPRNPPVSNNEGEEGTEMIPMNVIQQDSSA
Sequence of amylin receptor of rat nucleus accumbens membranes (rat) (Q9JJ74 27-148, chain 2 of 2, further chain): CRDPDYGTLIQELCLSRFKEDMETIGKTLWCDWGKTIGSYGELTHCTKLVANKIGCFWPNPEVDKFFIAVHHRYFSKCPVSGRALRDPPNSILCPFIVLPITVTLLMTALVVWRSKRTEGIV

Point of comparison: KCNTATCATQRLANFLVRSSNNLGPK(Y‑shaped mPEG40KD)LPPTNVGSNTY-NH2 (ends and bridges not checked) [[K^26(Y-shaped-mPEG40KD)]-Cmpd 53], IC50 470 nM. Against it:
- CNTATCATQRLANFLVRSSNNLGPVLPPTNVGSNTY-NH2 (ends and bridges not checked) [[des-Lys^1]-Cmpd 49] — 1100-fold lower, 0.42 nM
- mPEG40KD-CNTATCATQRLANFLVRSSNNLGPVLPPTNVGSNTY-NH2 (ends and bridges not checked) [mPEG40KD-Cmpd 50] — 6-fold lower, 78 nM
- KCNTATCATQRLANFLVRSSNNLGPK(mPEG40KD)LPPTNVGSNTY-NH2 (ends and bridges not checked) [[K^26(mPEG40KD)]-Cmpd 53] — 7.1-fold lower, 66 nM
